As a reminder, the Kd is the concentration at which binding is half-saturated. Higher therefore signals lower affinity. One may read the koff as the rate constant with which the complex falls apart. A lower koff goes with slow dissociation. A word on the kon: it is the rate constant with which the complex forms. A lower kon goes with slow association.

Changes are numbered by the printed parent chain.

Sequences and labels used below:
B1: ACI-7067-1107G5-Ab2 (antibody, V domains shown)
VH: QVQLQQPGTELVKPGASVKLSCKASGYTFTKYWMHWVKQRPGQGLEWIGNINPNNGDTNYNEKFKSKATLTVDKSSSTAYMQLSSLTSEDSAVYYCAIAMDYWGQGTSVTVSS
VL: DIQMTQSPSSLSAFLGERVSLTCRASQDIGNNLNWFQQEPDGTIKRLIYATSSLDSGVPKRFSGSRSGSEYSLTISSLESEDFVDYYCLQFGSSPLTFGAGTKLELK
B2: ACI-7079-2602G4-Ab4 (antibody, V domains shown)
VH: EVQLVESGGGLVQPKGSLKLSCAASGFTFKTYAMHWVRQAPGKGLEWVARIRSKGSDYATYYADSVKDRFTISRDDSQSMLYLQMNNLKTEDTAMYFCVRGGADSWFAYWGQGTLVTVST
VL: QIVLTQSPAIMSASPGERITMTCTASSSVSYMHWYQQKSGTSPKRWIYDTSKLASGVPARFSGSGSGASYTLTISSMEAEDAATYYCQQWNRNPPTFGGGTQLAIK
B3: ACI-7079-2605B3-Ab2 (antibody, V domains shown)
VH: B2 VH with T28I, S56G, D57N, Y62F, S79N, M85V, T90I, A103N, D104Y, T120A
VL: QIVLTQSPAIMSASPGEKVTMTCSASSSVTYMHWYQQKSGTSPKRWIYDTSQLASGVPARFSGSGSGTSHSLTISSMETEDAATYYCQQWTRNPPTFGGGTKLAIK
B4: ACI-7079-2506F3-Ab1 (antibody, V domains shown)
VH: QVQLQQPGAELVKPGASVKLSCKASGYTFTTYWMQWVKQRPGQGLEWIGEIDPSDSYINYNQKFKGKATLTVDTSSSTAFMQLSSLTSEDSAVYYCARGMMDYWGQGTSVTVSS
VL: DVLMTQTPLSLPVSLGDQASISCRSSQSIVHSNGNTYLEWYLQKPGQSPKLLIYKVSNRFSGVPDRFSGSGSGTDFTLKISRVEAEDLGVYYCFKGSHVPYTFGGGTKLEIK
B5: ACI-7088-4303A3-Ab1 (antibody, V domains shown)
VH: QVQLQQSGAELVRPGASVTLSCKASGYTFTDYEMHWVKQTPVHGLEWIGVIDPETGGAVQNQKFKGKAILTADNSSSTAYMDLRSLTSEDSAVYNCAMGAALRLAYWGQGTLVTVSS
VL: B4 VL with T36S, S81N, K95Q, Y101F, G105S
B6: ACI-7067-1102G3-Ab1 (antibody, V domains shown)
VH: EVKLEESGGGLVQPGGSMKLSCAASGFTFSDAWMNWVRQSPEKGLEWVAEIRNKAHNHATYYAESVKGRFTISGDDSKSSVYLQMNNLRAEDTGIYYCTIYSYWGQGTLVTVSA
VL: SIVMTQTPKFLLVSAGDRVTITCKASQSVTKDVAWYQQKPGQSPKLLIYSTSNRYSGVPDRFTGSGYGTDFTFTINTVQTEDLAVYFCQQDYRIPYTFGGGTKLEIK
B7: ACI-7079-2603C1-Ab3 (antibody, V domains shown)
VH: QVQLQQPGADLVKPGASVKLSCKASGYTFTSYWMQWTKQRPGQGLEWIGEIDPSDSYANYNQKFKGKATLTVDKYSSTAYMQLNSLTSEDSAVYYCALYDGPSYWGQGTLVTVS
VL: ENVLTQSPAIMSASPGEKVTMTCSAGSSVSYMHWFQQKSSTSPKLWIYDTSKLPSGVPGRFSGSGSGNSYSLTISSMEAEDVATYYCFQGSGYPYTFGGGTKLEIK
B8: ACI-7079-2506E2-Ab2 (antibody, V domains shown)
VH: QVQLQQSGPELVRPGASVKISCKASGYAFSNSWMNWVKQRPGKGLEWIGRIFPGDGDTYYDGKFKGKVKLTTDKFSNTAYMQLRSLTSEDSAVYFCARWGGTNDEWFAHWGQGTLVTVSV
VL: DIVLTQSPASLTVSLGQRATISCRASQSVSTSRNSYMHWYQQKPRQPPKLLIKYASNLESGVPARFSGSGSGADFTLNIHPVEEEDTATYYCQHSWDIPLTFGTGTKLELS
B9: ACI-7088-4301H3-Ab2 (antibody, V domains shown)
VH: EVQLQQSGPELVKPGASVKISCKASGYTFADYFMNWVKQSHGKSLEWIGDINPNNGGTTYNQKFKGKATLTVDKSSNTAYMELRSLTSEDSAVYYCARGRNYAMDYWGQGTSVTVSS
VL: DIVMSQSPSSLAVSAGEKVTMSCKSSQSLLNSRTRKNYLAWYQQKPGQSPKLLIYSASTRESGVPDRFTGSGFGTDFTLTISSVQAEDLAVYYCKQSYDLWTFGGGTKLEIK
B10: ACI-7079-2606A6-Ab2 (antibody, V domains shown)
VH: QVQLQQSGPELVKPGASVKISCKASGFAFSSSWMNWVKQRPGKGLEWVGRIFPGDGDTNYDRKFKDKATLTADKSSSTAYMQLSSLTSEDSAVYFCARWTGGYDWFAYWGQGTLVTVSA
VL: DIVLTQSPASLAVSLGQRATISCRASQSVSTSNYNYLHWYQQKPGQPPKLLITYASNLESGVPARFSGSGSGTDFTLNIHPVEEGDTATYYCQHSWEIPLTFGAGTKLELK
B11: ACI-7079-2511B3-Ab3 (antibody, V domains shown)
VH: DVQLQESGPGLVKPSQSLSLTCSVTGFSITSYYYWNWIRQFPGNKLEWMAYISYDGSNNYNPSLKNRISITRDTSKNQFFLKLNSVTTEDTATYYCTRGDWDWGQGTLVTVSA
VL: not shown
B12: ACI-7088-4303A1-Ab1 (antibody, V domains shown)
VH: EVQLQQSGAELVRPGASVKLSCTASGFNIKDDYMHWVKQRPEQGLEWIGWIDPENGDSEYASKFQGKATMTADTSSNTAYLQLSSLTSEDTAVYYCKTWGTAQALFPYWGQGTLVTVSA
VL: DIVMTQSQKFMSTSVGDRVSITCKASQNVGTSVGWYQQKAGQSPKLLIHSASNRYTGVPDRFTGSGSGTDFTLTINNMQSEDLADYFCQQYRSYPLTFGAGTKLELK
B13: ACI-7079-2507B3-Ab1 (antibody, V domains shown)
VH: EVQLVESGGGLVQPKGSLKVSCAASGFTFKTYAMHWVRQAPGKGLEWVARIRSENSNFAKYYADSVKDRFTISRDDSQSMLYLQMHTLKTEDTAIYYCVRGYNGSSLDYWGQGTTLTVSS
VL: QIVLTQSPAIMSAFPGERVTMTCSASSSVNYMHWYQQKSGTSPKRWIYDTSKLASGVPARFSGGGSGTSYSLTISNMEAEDAATYYCQQWRSNPPTFGGGTKLEIK
B14: ACI-7067-1106A8-Ab2 (antibody, V domains shown)
VH: B2 VH with K30N, D57N, Y61N, F97Y, G102H, A103G, D104S, W106Y, A108S, T120A
VL: B13 VL with F14S, R18K, N30S, K52N, G64S, N76S, R91N, N93H, G99A, I105L
B15: ACI-8033-5A12-Ab1 (antibody, V domains shown)
VH: QVHLKQSGADLVRPGASVKLSCKASGYTFTDYYINWVKQRPGQGLEWIARIYPGSGNTYYNEKFKGRATLSAEKSSTTAYMQLSSLTSEDSAVYFCVVGYYGAWGQGTTLTVSS
VL: DVVMTQTPLSLPVSLGDQASISCRSSQSLVHSNGKTHLHWYLQKPGQSPKLLIYKVSNRFSGVPDRFSGSGSGTDFTLKISRVEAEDLGVYFCSQSTHVPWTFGGGTKLEIK
B16: ACI-8033-1G10-Ab1 (antibody, V domains shown)
VH: DVQLQESGPGLVKPSQTVFLTCTVTGISITTGNYRWSWIRQFPGNKLEWIGYIYYSGTITYNPSLTSRTTITRDTPKNQFFLEMNSLTAEDTATYYCARIYYGNAMDYWGQGTSVTVSS
VL: B15 VL with K35N, H37Y, W101H

In the first assay the target is monomeric alpha-synuclein, P37840. Description: SPR, captured mAb. As to conditions: remark: other sources report otherwise. For orientation: Surface plasmon resonance follows binding to a sensor surface in real time, without labels.
The molecule B1 returned a Kd of 7.2 nM, a koff of 0.00114 s⁻¹ and a kon of 158000 M⁻¹ s⁻¹.

B2 returned a Kd of 3.9 nM, a koff of 0.000867 s⁻¹ and a kon of 223000 M⁻¹ s⁻¹.

In turn, B3 gave a Kd of 3.9 nM, a koff of 0.00109 s⁻¹ and a kon of 283000 M⁻¹ s⁻¹.

The molecule B4 had a Kd of 2.4 nM, a koff of 0.00051 s⁻¹ and a kon of 210000 M⁻¹ s⁻¹.

The molecule B5 returned a Kd of 1 nM, a koff of 0.00107 s⁻¹ and a kon of 1.04e+06 M⁻¹ s⁻¹.

The molecule B6 had a Kd of 8 nM, a koff of 0.00103 s⁻¹ and a kon of 129000 M⁻¹ s⁻¹.

In the case of B7, the Kd is 10.9 nM, the off-rate (koff) came out at 6.06 s⁻¹ and the kon was 5.58e+08 M⁻¹ s⁻¹.

In turn, B8 came in with a Kd of 7.6 nM, a koff of 0.000615 s⁻¹ and a kon of 80900 M⁻¹ s⁻¹.

The molecule B9 showed a Kd of 119 nM, a koff of 0.00329 s⁻¹ and a kon of 27600 M⁻¹ s⁻¹.

The molecule B10 gave a Kd of 4.8 nM, a koff of 0.00412 s⁻¹ and a kon of 860000 M⁻¹ s⁻¹.

For B11, the Kd was 6.3 nM, the koff is 0.000583 s⁻¹ and the kon amounted to 92800 M⁻¹ s⁻¹.

Regarding B12, the Kd stood at 37.1 nM, the koff amounted to 0.0632 s⁻¹ and the kon worked out at 1.7e+06 M⁻¹ s⁻¹.

Turning to B13, the Kd was found to be 2.6 nM, the koff was found to be 0.000642 s⁻¹ and the kon is 245000 M⁻¹ s⁻¹.

B14 yielded a Kd of 23.2 nM, a koff of 0.005 s⁻¹ and a kon of 218000 M⁻¹ s⁻¹.

Another assay deals with alpha-synuclein fibrils, P37840. Put plainly: SPR, captured mAb. As to conditions: remark: other sources report otherwise.
Take B1: the Kd worked out at 16.1 nM, the koff was found to be 0.00218 s⁻¹ and the kon came to 345000 M⁻¹ s⁻¹.

As for B2, the Kd was found to be 18.9 nM, the koff amounted to 0.000234 s⁻¹ and the kon was determined as 12400 M⁻¹ s⁻¹.

B3 gave a Kd of 17.4 nM, a koff of 0.000294 s⁻¹ and a kon of 16800 M⁻¹ s⁻¹.

Turning to B15, the Kd turned out to be 0.1 nM, the koff came to 4.37e-06 s⁻¹ and the kon was 30600 M⁻¹ s⁻¹.

B4 showed a Kd of 8.8 nM, a koff of 0.000161 s⁻¹ and a kon of 18300 M⁻¹ s⁻¹.

On to B5, for which the Kd was found to be 9.4 nM, the koff is 0.000606 s⁻¹ and the kon came to 64700 M⁻¹ s⁻¹.

As to B16, the Kd turned out to be 3.7 nM, the koff came out at 6.54e-05 s⁻¹ and the kon was determined as 17700 M⁻¹ s⁻¹.

In turn, B6 came in with a Kd of 30.6 nM, a koff of 0.00135 s⁻¹ and a kon of 46000 M⁻¹ s⁻¹.

B7 showed a Kd of 40.3 nM, a koff of 51.7 s⁻¹ and a kon of 1.28e+09 M⁻¹ s⁻¹.

The molecule B8 showed a Kd of 91.9 nM, a koff of 0.000476 s⁻¹ and a kon of 5190 M⁻¹ s⁻¹.

For B9, the Kd was 86.5 nM, the koff worked out at 0.000898 s⁻¹ and the kon was determined as 10400 M⁻¹ s⁻¹.

For the molecule B10, the Kd was 56.2 nM, the koff stood at 0.000862 s⁻¹ and the kon was found to be 15400 M⁻¹ s⁻¹.

In the case of B11, the Kd turned out to be 29.5 nM, the koff was 0.000312 s⁻¹ and the kon worked out at 10600 M⁻¹ s⁻¹.

B12: the Kd is 13.5 nM, the koff stood at 0.000244 s⁻¹ and the kon was found to be 18100 M⁻¹ s⁻¹.

B13 returned a Kd of 34.9 nM, a koff of 0.000668 s⁻¹ and a kon of 19100 M⁻¹ s⁻¹.

Molecule B14 yielded a Kd of 25 nM, a koff of 0.00721 s⁻¹ and a kon of 284000 M⁻¹ s⁻¹.

The values are drawn from US20250340623A1.
